Data taken from patent US20110318339A1 (FABRUS, published 2011).
Numbering of substitutions follows the chain as printed. Numbers in names are those of the source.

Columns and labels:
[1] = biological target: T1, Recombinant Human DLL4 (Cat# 1506-D4/CF, R&D Systems) (human, UniProt Q9NR61 27-529); assay: ELISA, hDLL4 coated, estimated from dose-dependent binding
T1 construct: Bought protein; also called rHuman DLL4; hDLL4

[2] = biological target: T2, DLL4 Egf1 (amino acid: 1-251) construct (human, UniProt Q9NR61 26-251); assay: Western blot, non-reducing
T2 construct: also called EGF1 construct; not shown: myc tag (and his tag) added by the PCR primers
Experimental: (§1) Media from transfected CHO cells was collected after 7 days. To enrich for the DLL4 protein, 1 ml aliquots of each sample were batch bound with 50 μl of Talon Resin for 30 minutes. To confirm protein production media samples were tested with mouse anti-c-myc mAb (Genescript; Catalog # A00704). Samples were washed and then boiled with loading dye in the presence or absence of DTT. A gel was run on each of the 2 samples for each condition: with DTT and without DTT. […] For detection goat anti-mouse HRP, goat anti-kappa HRP, and goat anti-lambda HRP were used, respectively.

[3] = biological target: T3, DLL4 DSL (amino acid: 1-217) construct (human, UniProt Q9NR61 26-217); assay: Western blot, non-reducing
T3 construct: also called DSL construct; not shown: myc tag (and his tag) added by the PCR primers
Experimental: as §1

[4] = biological target: T1, Recombinant Human DLL4 (Cat# …); assay: SPR, DLL4 immobilised
Experimental: In this example, the binding affinities of selected anti-DLL4 Fabs to recombinant human DLL4 (hDLL4, Cat# 1506-D4/CF, R&D Systems) were analyzed using Surface Plasmon Resonance (SPR) (Biosensor Tools, Salt Lake City, Utah). The Fabs analyzed include germline-derived antibodies and germline-modified DLL4 antibodies. Recombinant hDLL4 was immobilized on a SPR chip using amine coupling at three different surface densities. The Fabs were serially diluted 3-fold, with an initial concentration of 1 μM. Binding studies were run on a ProteOn system using a GLM sensor chip in 10 mM HEPES, pH 7.4, 150 mM NaCl, 0.01% Tween-20, and 0.1 mg/ml BSA at 25° C. The response data from each surface was globally fit to determine the binding constants.

[5] = biological target: T4, recombinant mouse DLL4 (Cat# 1389-D4-050/CF, R&D Systems) (mouse, UniProt Q9JI71 28-525); assay: ELISA, mDLL4 or hDLL4 coated
T4 construct: also called mDLL4
T4 sequence (Q9JI71 28-525 limits assumed): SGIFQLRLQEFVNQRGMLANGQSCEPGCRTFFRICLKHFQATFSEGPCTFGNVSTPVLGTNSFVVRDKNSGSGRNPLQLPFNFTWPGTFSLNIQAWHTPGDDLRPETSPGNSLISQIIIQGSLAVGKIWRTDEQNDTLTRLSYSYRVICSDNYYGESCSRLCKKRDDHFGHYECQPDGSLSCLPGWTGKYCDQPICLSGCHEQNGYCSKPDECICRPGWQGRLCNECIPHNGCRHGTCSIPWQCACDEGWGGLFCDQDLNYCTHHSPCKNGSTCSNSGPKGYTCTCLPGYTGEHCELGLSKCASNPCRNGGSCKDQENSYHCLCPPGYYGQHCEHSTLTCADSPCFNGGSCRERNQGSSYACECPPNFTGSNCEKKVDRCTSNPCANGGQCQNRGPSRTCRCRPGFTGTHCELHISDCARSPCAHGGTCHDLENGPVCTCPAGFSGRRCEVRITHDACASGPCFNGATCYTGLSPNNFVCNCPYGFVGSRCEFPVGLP

[6] = biological target: T1, Recombinant Human DLL4 (Cat# …); assay: ELISA, DLL4 coated
[7] = biological target: T1, Recombinant Human DLL4 (Cat# …); assay: ECL competition, DLL4 coated; competitor 100 nM Ru-labeled Fab H:APF & L:wt
Experimental: Briefly, single spot 96-well standard plates (MSD) were coated overnight with 5 μl per well of 10 μg/ml DLL4 (R&D systems) in PBS with 0.03% Triton X-100. Some wells were left uncoated as blank. The next day, an 150 μl aliquot of 3% BSA in TBST was added to each well and allowed to incubate for 60 min at 20° C. to block the plate. […] After incubating the plate at 20° C. with shaking for 1 hour, the ECL signal was measured using a Sector Imager 2400.

[8] = biological target: T5, Recombinant Human DLL4 (Cat# 1506-D4/CF) (human, UniProt Q9NR61 27-529); assay: Multispot ECL; Fab 17.5 nM
T5 construct: Bought from R&D Systems; also called rHuman DLL4; hDLL4
Experimental: (§2) An 150 μl aliquot of 1% Bovine Serum Albumin (BSA) in Tris-buffered Saline Tween (TBST) was added to each well and allowed to incubate for 30 min at 20° C. followed by washing and tap drying to completely remove any residual solution. Subsequently, a 12.5 μl aliquot of 1% BSA TBST was added to each well followed by the addition of a 12.5 μl aliquot of a purified Fab. The plate was sealed and incubated for 1 hour at 20° C. with shaking.
(§3) Detection antibodies were prepared by individually conjugating both goat anti-human Kappa light chain polyclonal antibody (K3502-1MG, Sigma-Aldrich) and goat anti-human Lambda light chain polyclonal antibody (L1645-1 mL, Sigma-Aldrich) with Ruthenium (II) tris-bipyridine-(4-methylsulfone)-N-hydroxysuccinimide (SULFO-TAG NHS-ester, Meso Scale Discovery) according to the manufacturer's instructions. TAG-detection antibody at 25 μl was added to each well and allowed to incubate for 1 hour at 20° C. with shaking. Finally, 15 μl of Read Buffer P with Surfactant (Cat # R92PC-1, Meso Scale Discovery) was added to each well. The electrochemiluminescence was measured using a Sector Imager 2400 (Meso Scale Discovery). Data was analyzed by comparing the ECL signals for an antigen to the blank of each well. A signal to blank ratio of 4 or more was considered a “Hit” Fab. […]

[9] = biological target: T6, rHuman HGF R/c-MET/Fc Chimera, CF (Cat# 358-MT/CF) (human, UniProt P08581 25-932); assay: Multispot ECL; Fab 17.5 nM
T6 construct: Bought from R&D Systems; also called HGF R/Fc; hepatocyte growth factor receptor (HGF R/c-Met)
Experimental: as §2, §3

[10] = biological target: T5, Recombinant Human DLL4 (Cat# 1506-D4/CF); assay: Multispot ECL; Fab 70 nM
Experimental: as §2, §3

[11] = biological target: T6, rHuman HGF R/c-MET/Fc Chimera, CF (Cat# …); assay: Multispot ECL; Fab 70 nM
Experimental: as §2, §3

[12] = biological target: T5, Recombinant Human DLL4 (Cat# 1506-D4/CF); assay: Multispot ECL; Fab 280 nM
Experimental: as §2, §3

[13] = biological target: T6, rHuman HGF R/c-MET/Fc Chimera, CF (Cat# …); assay: Multispot ECL; Fab 280 nM
Experimental: as §2, §3

[14] = biological target: T5, Recombinant Human DLL4 (Cat# 1506-D4/CF); assay: Multispot ECL; Fab 4.375 nM
Experimental: as §2, §3

[15] = biological target: T6, rHuman HGF R/c-MET/Fc Chimera, CF (Cat# …); assay: Multispot ECL; Fab 4.375 nM
Experimental: as §2, §3

[16] = biological target: T7, rHuman IGF-1 sR, (IGF-1 sR), CF (Cat# 391-GR) (human, UniProt P08069 31-932); assay: Multispot ECL; Fab 230 nM
T7 construct: Bought from R&D Systems; also called insulin-like growth factor-1 soluble receptor
Experimental: as §2
(§4) Detection antibodies were prepared by individually conjugating both goat anti-human Kappa light chain polyclonal antibody (K3502-1MG, Sigma-Aldrich) and goat anti-human Lambda light chain polyclonal antibody (L1645-1 mL, Sigma-Aldrich) with Ruthenium (II) tris-bipyridine-(4-methylsulfone)-N-hydroxysuccinimide (SULFO-TAG NHS-ester, Meso Scale Discovery) according to the manufacturer's instructions. TAG-detection antibody at 25 μl was added to each well and allowed to incubate for 1 hour at 20° C. with shaking. Finally, 15 μl of Read Buffer P with Surfactant (Cat # R92PC-1, Meso Scale Discovery) was added to each well. The electrochemiluminescence was measured using a Sector Imager 2400 (Meso Scale Discovery). Data was analyzed by comparing the ECL signals for an antigen to the blank of each well. A signal to blank ratio of 4 or more was considered a “Hit” Fab.
(§5) To confirm a “Hit” from the initial Multispot ECL screening, a Fab concentration dependent titration was carried out to determine the Fab-antigen binding affinity.

[17] = biological target: T8, rHuman Notch-1/Fc Chimera, CF (Cat# 3647-TK) (human, UniProt P46531 19-526); assay: Multispot ECL; Fab 230 nM
T8 construct: Bought from R&D Systems
Experimental: as §2, §4, §5

[18] = biological target: T5, Recombinant Human DLL4 (Cat# 1506-D4/CF); assay: Multispot ECL; Fab 230 nM
Experimental: as §2, §4, §5

[19] = biological target: T9, rHuman Erythropoietin R/Fc Chimera, CF (Cat# 963-ER) (human, UniProt P19235 25-250); assay: Multispot ECL; Fab 230 nM
T9 construct: Bought from R&D Systems; also called EPO R/Fc; Epo R/Fc chimera
T9 sequence (looked up): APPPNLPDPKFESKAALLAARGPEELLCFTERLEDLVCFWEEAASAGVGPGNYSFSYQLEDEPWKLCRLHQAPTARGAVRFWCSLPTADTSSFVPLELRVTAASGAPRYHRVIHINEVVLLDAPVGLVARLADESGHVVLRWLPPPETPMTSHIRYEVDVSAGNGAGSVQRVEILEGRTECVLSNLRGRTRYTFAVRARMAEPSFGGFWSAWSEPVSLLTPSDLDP
Experimental: as §2, §4, §5

[20] = biological target: T7, rHuman IGF-1 sR, (IGF-1 sR), CF (Cat# …); assay: Multispot ECL; Fab 57.5 nM
Experimental: as §2, §4, §5

[21] = biological target: T8, rHuman Notch-1/Fc Chimera, CF (Cat# …); assay: Multispot ECL; Fab 57.5 nM
Experimental: as §2, §4, §5

[22] = biological target: T5, Recombinant Human DLL4 (Cat# 1506-D4/CF); assay: Multispot ECL; Fab 57.5 nM
Experimental: as §2, §4, §5

[23] = biological target: T9, rHuman Erythropoietin R/Fc Chimera, CF …; assay: Multispot ECL; Fab 57.5 nM
Experimental: as §2, §4, §5

[24] = biological target: T7, rHuman IGF-1 sR, (IGF-1 sR), CF (Cat# …); assay: Multispot ECL; Fab 920 nM
Experimental: as §2, §4, §5

[25] = biological target: T8, rHuman Notch-1/Fc Chimera, CF (Cat# …); assay: Multispot ECL; Fab 920 nM
Experimental: as §2, §4, §5

[26] = biological target: T5, Recombinant Human DLL4 (Cat# 1506-D4/CF); assay: Multispot ECL; Fab 920 nM
Experimental: as §2, §4, §5

[27] = biological target: T9, rHuman Erythropoietin R/Fc Chimera, CF …; assay: Multispot ECL; Fab 920 nM
Experimental: as §2, §4, §5

[28] = biological target: T7, rHuman IGF-1 sR, (IGF-1 sR), CF (Cat# …); assay: Multispot ECL; Fab 14.375 nM
Experimental: as §2, §4, §5

[29] = biological target: T8, rHuman Notch-1/Fc Chimera, CF (Cat# …); assay: Multispot ECL; Fab 14.375 nM
Experimental: as §2, §4, §5

[30] = biological target: T5, Recombinant Human DLL4 (Cat# 1506-D4/CF); assay: Multispot ECL; Fab 14.375 nM
Experimental: as §2, §4, §5

[31] = biological target: T9, rHuman Erythropoietin R/Fc Chimera, CF …; assay: Multispot ECL; Fab 14.375 nM
Experimental: as §2, §4, §5

B1: Fab VH1-46_IGHD6-6*01_IGHJ1*01 H:APFF VLTH & L6_IGKJ1*01 L:NDH LS (Fab, V domains shown)
VH: QVQLVQSGAEVKKPGASVKVSCKASGYTFTSYYMHWVRQAPGQGLEWMGIVLPTGHSTSYAQKFQGRVTMTRDTSTSTVYMELSSLRSEDTAVYYCAREEYAPFSAEYFQFWGQGTLVTVSS
VL: EIVLTQSPATLSLSPGERATLSCRASQNVDHYLAWYQQKPGQAPRLLIYDALNRSTGIPARFSGSGSGTDFTLTISSLEPEDFAVYYCQQRSNWPPWTFGQGTKVEIKR
notes: all other places give 370; also called Fab H:APFF VLTH & L:NDH LS; anti-DLL4 Fab H:APFF VLTH & L:NDH LS
Kd [1]: ~0.001 µM
binding result [2]: no binding (tested: 20 nM Fab)
binding result [3]: no binding (tested: 20 nM Fab)
fold greater affinity for hDLL4 than for mouse DLL4 [4]: 5 fold
fold decrease in affinity for mDLL4 against hDLL4 [5]: 10 fold
fold increased binding affinity against the antibody mutants with heavy chain H:APFF ALTH [6]: ~10 fold

B2: Fab VH1-46_IGHD6-6*01_IGHJ1*01 H:APFF G56H & L6_IGKJ1*01 (Fab, V domains shown)
VH: B1 VH with V51I, L52N, T54S
VL: not shown
notes: Fab, kappa light chain; also called H:APFF G56H & L:wt
Kd [7]: ~0.03 µM

B3: Fab VH1-46_IGHD2-15*01_IGHJ2*01 & L12_IGKJ1*01 (Fab, V domains shown)
VH: QVQLVQSGAEVKKPGASVKVSCKASGYTFTSYYMHWVRQAPGQGLEWMGIINPSGGSTSYAQKFQGRVTMTRDTSTSTVYMELSSLRSEDTAVYYCAREGYCSGGSCYSYWYFDLWGRGTLVTVSS
VL: not shown
notes: Germline-derived Fab from E. coli: VH in Plasmid A (CH1, His6 and Flag tags), VL in Plasmid C (kappa CL)
ECL signal [8]: 1220
ECL signal [9]: 565
ECL signal [10]: 2750
ECL signal [11]: 1290
ECL signal [12]: 8110
ECL signal [13]: 3560
ECL signal [14]: 558
ECL signal [15]: 193

B4: Fab VH1-46_IGHD3-10*01_IGHJ4*01 & L12_IGKJ1*01 (Fab, V domains shown)
VH: QVQLVQSGAEVKKPGASVKVSCKASGYTFTSYYMHWVRQAPGQGLEWMGIINPSGGSTSYAQKFQGRVTMTRDTSTSTVYMELSSLRSEDTAVYYCAREYYYGSGSYYNDYFDYWGQGTLVTVSS
VL: not shown
notes: as for B3
ECL signal [16]: 4760
ECL signal [17]: 9740
ECL signal [18]: 119000
ECL signal [19]: 6950
ECL signal [20]: 2830
ECL signal [21]: 5890
ECL signal [22]: 144000
ECL signal [23]: 4040
ECL signal [24]: 10200
ECL signal [25]: 20100
ECL signal [26]: 73600
ECL signal [27]: 16400
ECL signal [28]: 1750
ECL signal [29]: 4210
ECL signal [30]: 125000
ECL signal [31]: 2720
